{"source": "patent US20260234251A1", "about": "(IMNOTECH, published 2026)", "binders": {"B1": {"name": "anti-CD2 single domain antibody according to SEQ ID No. 18 (VHH)", "VHH": "QVQLQESGGGSVQPGGSLRLSCTVSGRTFSNYAVGWFRQAPGKEREFVATITGSGTAYADSVKGRFTISRDNAKNTVYLQMNSLKPEDTAVYYCAATWSSGYTFRSPTQYDYWGQGTQVTVSS", "notes": "also called CD2-sdAb; anti-CD2-sdAb"}}, "molecular_target": "T1, human CD2 (cluster of differentiation 2) (human, UniProt P06729 25-351)", "T1 construct": "Presented on cells: human CD8+ T cells, CD2-transduced U698M B-cell lymphoma cells, Jurkat cells and human PBMCs; also called CD2 target antigen; CD2 surface marker", "T1 sequence": "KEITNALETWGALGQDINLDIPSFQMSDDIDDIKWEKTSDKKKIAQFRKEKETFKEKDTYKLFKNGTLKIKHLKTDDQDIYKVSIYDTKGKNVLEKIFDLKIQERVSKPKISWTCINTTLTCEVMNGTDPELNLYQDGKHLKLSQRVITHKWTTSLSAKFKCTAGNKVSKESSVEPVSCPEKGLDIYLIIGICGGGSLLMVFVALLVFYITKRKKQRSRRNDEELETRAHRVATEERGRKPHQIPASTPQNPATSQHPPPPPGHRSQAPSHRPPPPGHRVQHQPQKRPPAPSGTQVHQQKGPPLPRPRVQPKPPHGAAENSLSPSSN", "experiment": "flow cytometry titration on human CD8+ T cells, one-site specific binding fit, triplicates", "method": "Determined affinity binding curves for CD2-sdAb (B) at different concentrations on human CD8+ T cells. R3b23-sdAb served as a negative control for unspecific binding (A). Binding of CD2-sdAb (B) is shown as a fraction of the maximum specific binding (Bₘₐₓ) and the binding intensity of R3b23-sdAb (A) is shown via the MFI at the different concentrations. Measurements were performed in triplicates and data is depicted on a semi-logarithmic scale. The dissociation constant (Ko) for CD2 was calculated based of one-site specific binding and is 2.3×10⁻⁹ [M]."}
{"binder": "B1", "values": [{"measurement": "Kd", "value": 2.3, "unit": "nM"}]}
